Data on one molecule can be found in US20070141625A1 (published 2007).

In this test the target is T1, protein C (PC) (UniProt P04070 43-461).
T1 construct: Commercial PC
In words: inhibition by rhsEPCR 2 µM of PC activation by thrombin on EA.hy926 endothelial cells; Ki derived from the shift of Km. As to the method: Proc Natl Acad Sci USA. 1996; 93:10212-6). 5×10⁴ cells/well were incubated in a 96-well plate with 0.02 U/ml of thrombin (0.17 nM) (ERL, Swansea, United Kingdom) and growing concentrations of PC (Baxter, Deerfield, Ill., USA) between 50 and 1000 nM in Tris 20 mM buffer, pH 7.4, supplemented with NaCl 150 mM, CaCl₂ 5 mM, MgCl₂ 0.6 mM, 1% BSA, 0.001% Tween-20 and 0.02% NaN₃. After 45 minutes at room temperature, lepirudin was added (Schering A G, Berlin, Germany) at an end concentration of 0.2 μmol/L, to inhibit thrombin; 3-4 minutes later, chromogenic substrate S-2366 was added (Chromogenix, Milan, Italy) at an end concentration of 0.4 mM with the purpose of monitoring its proteolysis by APC. The increase in absorbance at 405 nm was recorded kinetically with a microplate reader (iEMS REader, Labsystems, Finland). Curve data fitting to the Michaelis-Menten equation was carried out using the Enzfitter program (Biosoft, Cambridge, United Kingdom), which calculated the Km of PC activation under those conditions. Where necessary, 45 μg/ml of purified anti-EPCR autoantibodies from patients (see below) were added simultaneously with the thrombin and PC. Thus, the effect of the anti-EPCR autoantibodies upon PC activation could be analyzed. […]

T1 sequence (P04070 43-461): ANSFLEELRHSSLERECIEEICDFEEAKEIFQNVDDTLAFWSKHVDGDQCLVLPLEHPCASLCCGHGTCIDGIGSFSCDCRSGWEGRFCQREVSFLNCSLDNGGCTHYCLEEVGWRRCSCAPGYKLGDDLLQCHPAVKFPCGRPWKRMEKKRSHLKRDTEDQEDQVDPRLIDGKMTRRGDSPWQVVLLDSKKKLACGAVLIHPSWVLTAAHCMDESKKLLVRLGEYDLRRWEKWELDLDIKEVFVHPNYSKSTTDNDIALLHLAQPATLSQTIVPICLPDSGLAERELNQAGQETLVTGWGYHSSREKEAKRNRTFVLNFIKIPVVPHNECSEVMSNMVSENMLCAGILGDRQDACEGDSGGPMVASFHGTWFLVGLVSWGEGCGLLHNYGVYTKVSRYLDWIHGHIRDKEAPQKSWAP

B1: recombinant human soluble EPCR (rhsEPCR) (receptor)
chain: SISQDASDGLQRLHMLQISYFRDPYHVWYQGNASLGGHLTHVLEGPDTNTTIIQLQPLQEPESWARTQSGLQSYLLQFHGLVRLVHQERTLAFPLTIRCFLGCELPPEGSRAHVFFEVAVNGSSFVSFRPERALWQADTQVTSGVVTFTLQQLNAYNRTRYELREFLEDTCVQYVQKHISAENTKGSQTSRSYTSAAASFLEQKLISEEDLNSAVDHHHHHH
notes: also called recombinant sEPCR; human recombinant EPCR in soluble form
As a reminder, the Ki is the dissociation constant of the complex between target and ligand, obtained from inhibition or displacement. In the case of B1, the Ki is roughly 70 nM.
